According to paper PMC12399193 (Acta Pharmaceutica Sinica. B, 2025):

Key:
[1] = target: T1, AVI-tagged DOK3(1–330 aa) (UniProt Q7L591 1-330); assay: BLI
T1 sequence (looked up): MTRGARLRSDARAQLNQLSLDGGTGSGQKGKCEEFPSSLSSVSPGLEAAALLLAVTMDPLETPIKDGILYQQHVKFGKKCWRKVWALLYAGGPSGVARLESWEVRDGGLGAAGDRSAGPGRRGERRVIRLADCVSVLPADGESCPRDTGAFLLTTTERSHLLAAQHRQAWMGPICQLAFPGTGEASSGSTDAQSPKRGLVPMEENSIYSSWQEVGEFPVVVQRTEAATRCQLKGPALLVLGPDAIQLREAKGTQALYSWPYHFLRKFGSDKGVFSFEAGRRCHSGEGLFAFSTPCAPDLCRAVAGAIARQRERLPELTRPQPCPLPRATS

[2] = target: T1, AVI-tagged DOK3(1–330 aa); assay: BLI; remark: listed apart in the source

B1: His-PRDX1 recombinant protein (WT, 1-199 aa) (natural protein, UniProt Q06830 1-199, looked up)
chain: MSSGNAKIGHPAPNFKATAVMPDGQFKDISLSDYKGKYVVFFFYPLDFTFVCPTEIIAFSDRAEEFKKLNCQVIGASVDSHFCHLAWVNTPKKQGGLGPMNIPLVSDPKRTIAQDYGVLKADEGISFRGLFIIDDKGILRQITVNDLPVGRSVDETLRLVQAFQFTDKHGEVCPAGWKPGSDTIKPDVQKSKEYFSKQK
- KD with SAB [1]: 1.77 µmol/L
- Kd [2]: 15.5 µM
